Experimental data from patent US11618906B2, “Hydroxylation techniques” (HYPHA DISCOVERY LTD., priority 2018, dated 2023).
Changes are numbered by the printed parent chain. Names and notes keep the numbering of the source.

B1: aluC09M33: cytochrome P450 aluC09 mutant T291I; amino acid sequence SEQ ID NO: 44 (protein, listed as Amycolatopsis lurida)
chain: MTDVEETTATLPLARKCPFSPPPEYERLRRESPVSRVGLPSGQTAWALTRLEDIREMLSSPHFSSDRQSPSFPLMVARQIRREDKPFRPSLIAMDPPEHSRARRDVVGEFTVKRMKALQPRIQQIVDEHLDALLAGPKPADLVQALSLPVPSLVICELLGVPYSDHEFFQSCSSRMLSREVTAEERMTAFEQLENYLDELVTKKEANATEDDLLGRQILKQRETGEADHGELVGLAFLLLIAGHETTANMISLGTVTLLENPDQLAKIKADPGKTLAAIEELLRVFTIAEIATSRFATADVEIGGTLIRAGEGVVGLSNAGNHDPDGFENPDTFDIERGARHHVAFGFGVHQCLGQNLARLELQIVFDTLFRRVPGLRIAVPVDELPFKHDSTIYGLHALPVTW
B2: aluC09M35: cytochrome P450 aluC09 mutant T291P; amino acid sequence SEQ ID NO: 52 (protein, listed as Amycolatopsis lurida)
chain: B1 chain with I291P
B3: aluC09M34: cytochrome P450 aluC09 mutant T291M; amino acid sequence SEQ ID NO: 48 (protein, listed as Amycolatopsis lurida)
chain: B1 chain with I291M

Legend:
Type in all cases: biochemical
[1] = Metabolism of BIRB796 by P450 aluC09 and mutants; details: percent of substrate being converted; 0.125 mg/ml, 27° C., 16-20 hours; [CYP] per enzyme as in Table 8
Experimental: (§1) Lyophilised material of mutants of CYP450aluC09, ferredoxinaluF03 and ferredoxin reductaseSCF15A was made as described in examples 3 and 4 and suspended in water (0.5 mL per vial) and biocatalysis was performed at 27° C. in the following conditions: 50 mM potassium phosphate pH 7.4, 5 mM MgCl2, 0.125 mg/ml substrate compound such as diclofenac (Sigma-Aldrich, UK), Aceclofenac (Tokyo Chemical Industry UK Ltd, UK), Indomethacin (Sigma-Aldrich, UK), Flufenamic acid (Sigma-Aldrich, UK), Napropamide (Sigma-Aldrich, UK), celecoxib (LC Laboratories, USA), valsartan (Tokyo Chemical Industry UK Ltd, UK), ruxolitinib (LC Laboratories, USA), 4-pyrrolidylacetophenone (Sigma-Aldrich, UK), tofacitinib (LC Laboratories, USA), bosentan (CarboSynth Ltd, UK), buparvaquone (MedChemtronica, Sweden), BIRB796 (Stratech Scientific Limited, UK), epothilone B (LC Laboratories, USA), ritonavir (Tokyo Chemical Industry UK Ltd, UK) or tivantinib (MedChemtronica, Sweden), P450AluC09 (concentration as in Table 8), 5 mM G6P, 1 mM NADP, 2 UN/ml G6PDH in a final volume of 100 μL. After 16-20 hours at 200 rpm (5 cm orbital shaker, Kuhner AG, Switzerland), reactions were extracted with an equal volume of acetonitrile, centrifuged to remove precipitated proteins and conversion assessed by UPLC-MS analysis.
(§2) However, of particular note when considering P450 concentration are the results for mutants M12, M20 and M34, as well as the deleterious impact on the range of substrate utility in mutants M39 and M40.

[2] = Metabolism of bosentan by P450 aluC09 and mutants; details: percent of substrate being converted; 0.125 mg/ml, 27° C., 16-20 hours; [CYP] per enzyme as in Table 8
Experimental: as §1, §2

[3] = Hydroxylation of diclofenac catalysed by cytochrome P450 aluC09 and mutants (UPLC-PDA-MS); details: for 4′,5-dihydroxy-diclofenac 1.38 mins / 4′-hydroxy-diclofenac (1) 1.62 mins / 5-hydroxy-diclofenac (2) 1.58 mins / Diclofenac (Substrate) 1.81 mins: % by UV peak area at 275 nm, 0.125 mg/ml substrate, 27° C., 16-20 hours; for regioselectivity of hydroxylation (product ratio 4′-hydroxydiclofenac : 5-hydroxydiclofenac) / Hydroxylated Ratio hydroxy 1:hydroxy 2: diclofenac; for Hydroxylated Ratio hydroxy 1:hydroxy 2: ratio of UV peak areas at 275nm
Experimental: as §1
(§3) UPLC data was obtained as follows:
(§4) Column: Acquity UPLC BEH Shield RP18 1.7 μm 2.1 mm i.d. 50 mm length
(§5) Solvents: H2O, B: Acetonitrile, both with 0.1% Formic acid
(§6) Detector: Waters Acquity UPLC PDA (UV-Vis detection) and Waters Acquity UPLC QDA (MS)
Illustrative results for the hydroxylation of diclofenac by CYP450aluC09 and selected T291x mutants are summarised below in Table 3 with representative chromatograms resented in FIG. 3a-c; retention times: diclofenac 1.85-1.88 minutes, 5-hydroxydiclofenac 1.60-1.63 minutes, 4′-hydroxydiclofenac 1.65-1.68 minutes, 4′,5-dihydroxydiclofenac 1.40-1.42 minutes. The chromatographic retention times and mass spectra coincided with those of authentic samples.

[4] = Metabolism of tofacitinib by P450 aluC09 and mutants; details: percent of substrate being converted; 0.125 mg/ml, 27° C., 16-20 hours; [CYP] per enzyme as in Table 8
Experimental: as §1, §2

[5] = O-demethylation of indomethacin catalysed by cytochrome P450 aluC09 and mutants; details: % by UV peak area at 275 nm; 0.125 mg/ml substrate, 27° C., 16-20 hours
Experimental: as §1, §3, §4, §5, §6

[6] = Metabolism of 4-pyrrolidylacetophenone by P450 aluC09 and mutants; details: percent of substrate being converted; 0.125 mg/ml, 27° C., 16-20 hours; [CYP] per enzyme as in Table 8
Experimental: as §1, §2

[7] = Metabolism of tivantinib by P450 aluC09 and mutants; details: percent of substrate being converted; 0.125 mg/ml, 27° C., 16-20 hours; [CYP] per enzyme as in Table 8
Experimental: as §1, §2

[8] = Metabolism of buparvaquone by P450 aluC09 and mutants; details: percent of substrate being converted; 0.125 mg/ml, 27° C., 16-20 hours; [CYP] per enzyme as in Table 8
Experimental: as §1, §2

[9] = Metabolism of ruxolitinib by P450 aluC09 and mutants; details: percent of substrate being converted; 0.125 mg/ml, 27° C., 16-20 hours; [CYP] per enzyme as in Table 8
Experimental: as §1, §2

[10] = Metabolism of valsartan by P450 aluC09 and mutants; details: percent of substrate being converted; 0.125 mg/ml, 27° C., 16-20 hours; [CYP] per enzyme as in Table 8
Experimental: as §1, §2

[11] = Metabolism of celecoxib by P450 aluC09 and mutants; details: percent of substrate being converted; 0.125 mg/ml, 27° C., 16-20 hours; [CYP] per enzyme as in Table 8
Experimental: as §1, §2

[12] = Hydroxylation / de-N-ethylation of napropamide catalysed by cytochrome P450 aluC09 and mutants; details: for Desethyl Napropamide (1.62 min) / Desethyl-hydroxy-Napropamide (1.41 min) / Hydroxy-Napropamide (1) (1.53 min) / Hydroxy-Napropamide (2), (1.52 min) / M-2Da (unidentified) (1.89 min) / Napropamide (substrate): % by UV peak area at 275 nm, 0.125 mg/ml substrate, 27° C., 16-20 hours; for Hydroxylated Ratio 2:1: napropamide, ratio of UV peak areas
Experimental: as §1, §3, §4, §5, §6
Napropamide elutes at 1.76 minutes, unidentified metabolite (−2 Da) elutes at 1.90 minutes, desethyl-napropamide elutes at 1.62 minutes, hydroxy-napropamide 1 elutes at 1.53 minutes and hydroxy-napropamide 2 elutes at 1.52 minutes and the desethyl-hydroxy-napropamide product elutes at 1.41 minutes.

[13] = Metabolism of epothilone B by P450 aluC09 and mutants; details: percent of substrate being converted; 0.125 mg/ml, 27° C., 16-20 hours; [CYP] per enzyme as in Table 8
Experimental: as §1, §2

[14] = Hydroxylation of flufenamic acid catalysed by cytochrome P450 aluC09 and mutants; details: for Flufenamic Acid (Substrate) 1.93 mins / Hydroxy-Flufenamic Acid (1) 1.69 mins / Hydroxy-Flufenamic Acid (2) 1.65 mins: % by UV peak area at 275 nm, 0.125 mg/ml substrate, 27° C., 16-20 hours; for Hydroxylated Ratio 1:2: flufenamic acid, ratio of UV peak areas at 275 nm
Experimental: as §1, §3, §4, §5, §6
Flufenamic acid elutes at 1.93 minutes, hydroxy-flufenamic acid 1 elutes at 1.68 minutes and hydroxy-flufenamic acid 2 elutes at 1.65 minutes.

[15] = Hydroxylation of aceclofenac catalysed by cytochrome P450 aluC09 and mutants; details: for Aceclofenac (Substrate) (1.80 mins) / Dihydroxy-Aceclofenac (1.42 mins) / Hydroxy-Aceclofenac (1) (1.64 min) / Hydroxy-Aceclofenac (2) (1.60 min): % by UV peak area at 275 nm, 0.125 mg/ml substrate, 27° C., 16-20 hours; for Hydroxylated Ratio 2:1: aceclofenac, ratio of UV peak areas at 275 nm
Experimental: as §1, §3, §4, §5, §6
Chromatograms are provided in FIGS. 5a-c; aceclofenac elutes at 1.80 minutes, hydroxy-aceclofenac acid 1 elutes at 1.64 minutes, hydroxy-aceclofenac acid 2 elutes at 1.60 minutes and dihydroxy-aceclofenac elutes at 1.42 minutes.

[16] = Metabolism of ritonavir by P450 aluC09 and mutants; details: percent of substrate being converted; 0.125 mg/ml, 27° C., 16-20 hours; [CYP] per enzyme as in Table 8
Experimental: as §1, §2

Molecule	% conversions (avg) BIRB796 [1]	% conversions (avg) Bosentan [2]	4′,5-dihydroxy-diclofenac 1.38 mins [3]	4′-hydroxy-diclofenac (1) 1.62 mins [3]	5-hydroxy-diclofenac (2) 1.58 mins [3]	Diclofenac (Substrate) 1.81 mins [3]	Hydroxylated Ratio hydroxy 1:hydroxy 2 [3]	% conversions (avg) Tofacitinib [4]	Indomethacin (1.74 mins) [5]	O-demethyl-Indomethacin (1.52 mins) [5]	% conversions (avg) 4-pyrrolidylacetophenone [6]	% conversions (avg) Tivantinib [7]	% conversions (avg) Buparvaquone [8]	% conversions (avg) Valsartan [10]	% conversions (avg) Celecoxib [11]	Desethyl Napropamide (1.62 min) [12]	Desethyl-hydroxy-Napropamide (1.41 min) [12]	Hydroxy-Napropamide (1) (1.53 min) [12]	Hydroxy-Napropamide (2), (1.52 min) [12]	M-2Da (unidentified) (1.89 min) [12]	also measured
B1	13.5%	98.9%	1.1%	29.5%	6.7%	63.3%	4.4	1.1%	92.8%	7.2%	7.9%	29.6%	8.2%	12.4%	2.8%	30.6%	5.7%	1.8%	4.1%	5.1%	regioselectivity of hydroxylation (product ratio 4′-hydroxydiclofenac : 5-hydroxydiclofenac) [3]: over four-fold; % conversions (avg) Ruxolitinib [9]: 30.6%; Napropamide (substrate) [12]: 56.0%; Hydroxylated Ratio 2:1 [12]: 2.3; % conversions (avg) Epothilone B [13]: 21.8%; Flufenamic Acid (Substrate) 1.93 mins [14]: 98.3%; Hydroxy-Flufenamic Acid (1) 1.69 mins [14]: 1.0%; Hydroxy-Flufenamic Acid (2) 1.65 mins [14]: 0.6%; Hydroxylated Ratio 1:2 [14]: 1.6; regioselectivity of hydroxylation of aceclofenac compared to the wild-type enzyme [15]: reversal of the regioselectivity; Aceclofenac (Substrate) (1.80 mins) [15]: 30.8%; Dihydroxy-Aceclofenac (1.42 mins) [15]: 8.8%; Hydroxy-Aceclofenac (1) (1.64 min) [15]: 41.7%; Hydroxy-Aceclofenac (2) (1.60 min) [15]: 18.6%; Hydroxylated Ratio 2:1 [15]: 0.4; % conversions (avg) Ritonavir [16]: 41.3%
B2	4.6%	98.4%	0.9%	41.3%	9.9%	48.2%	4.2	1.1%	94.1%	5.9%	3.3%	35.7%	7.1%	21.8%	1.5%	36.6%	4.8%	1.2%	3.6%	5.3%	regioselectivity of hydroxylation (product ratio 4′-hydroxydiclofenac : 5-hydroxydiclofenac) [3]: over four-fold; % conversions (avg) Ruxolitinib [9]: 34.1%; Napropamide (substrate) [12]: 51.0%; Hydroxylated Ratio 2:1 [12]: 3.0; % conversions (avg) Epothilone B [13]: 20.6%; Flufenamic Acid (Substrate) 1.93 mins [14]: 95.8%; Hydroxy-Flufenamic Acid (1) 1.69 mins [14]: 2.7%; Hydroxy-Flufenamic Acid (2) 1.65 mins [14]: 1.5%; Hydroxylated Ratio 1:2 [14]: 1.9; Aceclofenac (Substrate) (1.80 mins) [15]: 21.8%; Dihydroxy-Aceclofenac (1.42 mins) [15]: 26.6%; Hydroxy-Aceclofenac (1) (1.64 min) [15]: 12.2%; Hydroxy-Aceclofenac (2) (1.60 min) [15]: 39.4%; Hydroxylated Ratio 2:1 [15]: 3.2; % conversions (avg) Ritonavir [16]: 37.6%
B3	18%	99%	1.3%	35.3%	10.4%	53.6%	3.4	3.1%	96.2%	3.8%	7.3%	59.1%	11.6%	43.2%	6.8%	40.7%	5.3%	3.4%	3.7%	5.3%	Napropamide (substrate) [12]: 44.0%; Hydroxylated Ratio 2:1 [12]: 1.1; % conversions (avg) Epothilone B [13]: 30.7%; Flufenamic Acid (Substrate) 1.93 mins [14]: 94.0%; Hydroxy-Flufenamic Acid (1) 1.69 mins [14]: 3.8%; Hydroxy-Flufenamic Acid (2) 1.65 mins [14]: 2.2%; Hydroxylated Ratio 1:2 [14]: 1.7; Aceclofenac (Substrate) (1.80 mins) [15]: 36.6%; Dihydroxy-Aceclofenac (1.42 mins) [15]: 21.3%; Hydroxy-Aceclofenac (1) (1.64 min) [15]: 15.2%; Hydroxy-Aceclofenac (2) (1.60 min) [15]: 26.8%; Hydroxylated Ratio 2:1 [15]: 1.8; % conversions (avg) Ritonavir [16]: 50.3%
